# Reference: paper PMC4840175, “A Substrate Mimic Allows High-Throughput Assay of the FabA Protein and Consequently the Identification of a Novel Inhibitor of Pseudomonas aeruginosa FabA” (Journal of Molecular Biology, 2016)
# B1: PaFabA (3-hydroxyacyl-[ACP] dehydratase) (Pseudomonas aeruginosa PAO1) (protein)
# chain: MTKQHAFTREDLLRCSRGELFGPGNAQLPAPNMLMIDRIVHISDVGGKYGKGELVAELDINPDLWFFACHFEGDPVMPGCLGLDAMWQLVGFYLGWQGNPGRGRALGSGEVKFFGQVLPTAKKVTYNIHIKRTINRSLVLAIADGTVSVDGREIYSAEGLRVGLFTSTDSF
# Substrate: CCCCCCCC(O)CC(=O)SCCNC(C)=O
# Assay: enzyme turnover, coupled PaFabA-PaFabV fluorescence assay (estimated KM) and direct UV assay
# Assay type: biochemical, Pseudomonas aeruginosa
protein,measurement,value
B1,Km,400 µM
